The values below come from patent US20130137855A1 (CSL, published 2013).

Assay [1] concerns the target T1, Soluble human IL-3Rα (human, UniProt P26951 20-305, limits assumed).
T1 construct: The assay used 'soluble human IL-3Rα'; also called IL-3Rα chain; interleukin 3 receptor alpha chain
T1 sequence: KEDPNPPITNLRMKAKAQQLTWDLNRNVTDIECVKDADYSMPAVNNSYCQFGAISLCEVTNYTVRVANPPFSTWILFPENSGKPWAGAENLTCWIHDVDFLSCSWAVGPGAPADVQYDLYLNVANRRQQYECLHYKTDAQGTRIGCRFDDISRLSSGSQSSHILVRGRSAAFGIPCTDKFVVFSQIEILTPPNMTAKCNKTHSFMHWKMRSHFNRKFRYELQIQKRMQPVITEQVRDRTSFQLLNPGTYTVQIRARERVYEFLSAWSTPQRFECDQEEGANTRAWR
The assay can be described thus: SPR (Biacore), mAb captured by anti-mouse Fc antibody, soluble human IL-3Rα injected, 25 °C. In general terms: Surface plasmon resonance follows binding to a sensor surface in real time, without labels.

Assay [2] deals with Soluble human IL-3Rα (human) (UniProt P26951). The assay is described as follows: SPR (Biacore), soluble human IL-3Rα immobilized on CM-5 chip, scFv injected, 25 °C.
For assay [3], the target named is T1, Soluble human IL-3Rα. The assay can be described thus: SPR (Biacore), mAb captured by anti-human Fc antibody, soluble human IL-3Rα injected, 25 °C.

Consider parental murine mAb (7G3) (antibody), for which, in assay [1], the Kd was found to be 0.92 nM.

For the molecule CSL362 scFv, the Kd in assay [2] is 2.2 nM.

Regarding “chimeric form of parental murine mAb (human IgG1) (antibody)”, in assay [3], the Kd was determined as 1 nM.

B1: CSL362B (antibody, human IgG1, kappa, V domains shown)
VH: EVQLVQSGAEVKKPGESLKISCKGSGYSFTDYYMKWARQMPGKGLEWMGDIIPSNGATFYNQKFKGQVTISADKSISTTYLQWSSLKASDTAMYYCARSHLLRASWFAYWGQGTMVTVSS
VL: DIVMTQSPDSLAVSLGERATINCESSQSLLNSGNQKNYLTWYQQKPGQPPKPLIYWASTRESGVPDRFSGSGSGTDFTLTISSLQAEDVAVYYCQNDYSYPYTFGQGTKLEIKR
modifications: Heavy chain constant region is afucosylated
notes: Expressed in FUT8-knock-out CHO cells (Potelligent)
On to B1, for which the Kd in assay [3] is approximately 0.43 nM.

The Kd is a measure of binding affinity in units of concentration. Low readings indicate higher affinity, high ones lower affinity.
